# Results reported in paper PMC8017708.
# T1: recombinant UVR8 (wild-type) purified from Sf9 insect cells (Arabidopsis thaliana), Q9FN03
# T1 chain: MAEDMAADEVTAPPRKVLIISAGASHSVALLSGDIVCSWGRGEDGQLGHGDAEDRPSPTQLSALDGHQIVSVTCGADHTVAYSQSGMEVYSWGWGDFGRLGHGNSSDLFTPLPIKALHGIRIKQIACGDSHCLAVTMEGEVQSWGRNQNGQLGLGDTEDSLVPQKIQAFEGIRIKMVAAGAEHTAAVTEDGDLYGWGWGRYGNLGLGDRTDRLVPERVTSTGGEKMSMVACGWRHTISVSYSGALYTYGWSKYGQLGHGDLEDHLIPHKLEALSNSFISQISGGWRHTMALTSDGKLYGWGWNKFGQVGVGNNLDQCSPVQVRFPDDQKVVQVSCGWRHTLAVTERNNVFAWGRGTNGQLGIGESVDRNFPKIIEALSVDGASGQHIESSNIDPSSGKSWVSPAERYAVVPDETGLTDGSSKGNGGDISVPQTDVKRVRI
# T2: recombinant UVR8^W285A purified from Sf9 insect cells (Arabidopsis thaliana), Q9FN03
# T2 chain: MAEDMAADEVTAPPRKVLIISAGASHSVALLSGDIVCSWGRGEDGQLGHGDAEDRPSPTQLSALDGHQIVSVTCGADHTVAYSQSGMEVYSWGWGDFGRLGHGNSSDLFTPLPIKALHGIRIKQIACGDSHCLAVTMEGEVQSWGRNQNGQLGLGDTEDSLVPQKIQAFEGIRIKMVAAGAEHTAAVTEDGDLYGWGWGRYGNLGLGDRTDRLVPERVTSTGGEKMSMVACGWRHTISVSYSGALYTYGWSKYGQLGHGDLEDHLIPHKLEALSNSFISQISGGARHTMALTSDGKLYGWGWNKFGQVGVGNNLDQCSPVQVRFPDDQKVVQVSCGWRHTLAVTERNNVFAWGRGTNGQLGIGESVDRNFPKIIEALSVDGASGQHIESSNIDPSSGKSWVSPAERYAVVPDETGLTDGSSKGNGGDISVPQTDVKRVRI
# T3: UVR8^W285A expressed in Arabidopsis (Arabidopsis thaliana), Q9FN03
# T3 chain: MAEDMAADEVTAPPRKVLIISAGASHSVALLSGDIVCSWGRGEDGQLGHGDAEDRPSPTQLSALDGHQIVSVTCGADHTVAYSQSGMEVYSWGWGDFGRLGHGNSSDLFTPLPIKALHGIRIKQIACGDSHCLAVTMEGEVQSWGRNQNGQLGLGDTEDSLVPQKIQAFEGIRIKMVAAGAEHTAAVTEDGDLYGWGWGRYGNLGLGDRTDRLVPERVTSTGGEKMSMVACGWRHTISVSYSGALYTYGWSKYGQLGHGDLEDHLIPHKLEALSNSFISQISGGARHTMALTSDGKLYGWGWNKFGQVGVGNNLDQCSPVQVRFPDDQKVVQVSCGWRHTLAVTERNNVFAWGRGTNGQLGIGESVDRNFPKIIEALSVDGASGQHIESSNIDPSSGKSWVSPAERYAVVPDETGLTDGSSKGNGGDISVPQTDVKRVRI
# What was measured:
# Conditions in all cases: remark: other sources report otherwise
# [1] = target: T1, recombinant UVR8 (wild-type) purified …; test: SEC
# [2] = target: T2, recombinant UVR8^W285A purified from …; test: SEC
# [3] = target: T3, UVR8^W285A expressed in Arabidopsis …; test: cross-linking
binder,measurement,setting,value
"recombinant UVR8 (wild-type) purified from Sf9 insect cells, Q9FN03 1-440 (natural protein) MAEDMAADEVTAPPRKVLIISAGASHSVALLSGDIVCSWGRGEDGQLGHGDAEDRPSPTQLSALDGHQIVSVTCGADHTVAYSQSGMEVYSWGWGDFGRLGHGNSSDLFTPLPIKALHGIRIKQIACGDSHCLAVTMEGEVQSWGRNQNGQLGLGDTEDSLVPQKIQAFEGIRIKMVAAGAEHTAAVTEDGDLYGWGWGRYGNLGLGDRTDRLVPERVTSTGGEKMSMVACGWRHTISVSYSGALYTYGWSKYGQLGHGDLEDHLIPHKLEALSNSFISQISGGWRHTMALTSDGKLYGWGWNKFGQVGVGNNLDQCSPVQVRFPDDQKVVQVSCGWRHTLAVTERNNVFAWGRGTNGQLGIGESVDRNFPKIIEALSVDGASGQHIESSNIDPSSGKSWVSPAERYAVVPDETGLTDGSSKGNGGDISVPQTDVKRVRI",stoichiometry N,[1],2
"recombinant UVR8^W285A purified from Sf9 insect cells, Q9FN03 1-440 (natural protein) MAEDMAADEVTAPPRKVLIISAGASHSVALLSGDIVCSWGRGEDGQLGHGDAEDRPSPTQLSALDGHQIVSVTCGADHTVAYSQSGMEVYSWGWGDFGRLGHGNSSDLFTPLPIKALHGIRIKQIACGDSHCLAVTMEGEVQSWGRNQNGQLGLGDTEDSLVPQKIQAFEGIRIKMVAAGAEHTAAVTEDGDLYGWGWGRYGNLGLGDRTDRLVPERVTSTGGEKMSMVACGWRHTISVSYSGALYTYGWSKYGQLGHGDLEDHLIPHKLEALSNSFISQISGGARHTMALTSDGKLYGWGWNKFGQVGVGNNLDQCSPVQVRFPDDQKVVQVSCGWRHTLAVTERNNVFAWGRGTNGQLGIGESVDRNFPKIIEALSVDGASGQHIESSNIDPSSGKSWVSPAERYAVVPDETGLTDGSSKGNGGDISVPQTDVKRVRI",stoichiometry N,[2],2
"UVR8^W285A expressed in Arabidopsis, Q9FN03 1-440 (natural protein) MAEDMAADEVTAPPRKVLIISAGASHSVALLSGDIVCSWGRGEDGQLGHGDAEDRPSPTQLSALDGHQIVSVTCGADHTVAYSQSGMEVYSWGWGDFGRLGHGNSSDLFTPLPIKALHGIRIKQIACGDSHCLAVTMEGEVQSWGRNQNGQLGLGDTEDSLVPQKIQAFEGIRIKMVAAGAEHTAAVTEDGDLYGWGWGRYGNLGLGDRTDRLVPERVTSTGGEKMSMVACGWRHTISVSYSGALYTYGWSKYGQLGHGDLEDHLIPHKLEALSNSFISQISGGARHTMALTSDGKLYGWGWNKFGQVGVGNNLDQCSPVQVRFPDDQKVVQVSCGWRHTLAVTERNNVFAWGRGTNGQLGIGESVDRNFPKIIEALSVDGASGQHIESSNIDPSSGKSWVSPAERYAVVPDETGLTDGSSKGNGGDISVPQTDVKRVRI",stoichiometry N,[3],2
